Data reported in US20060018918A1.

Key:
Assay in all cases: ELISA on plates coated with the antigen; control serum
native α-lactalbumin = molecular target: native α-lactalbumin
[1] = molecular target: α-lactalbumin stabilized denatured isomer "d"
[2] = molecular target: α-lactalbumin stabilized denatured isomer "c"
[3] = molecular target: α-lactalbumin stabilized denatured isomer "a"

normal mouse serum (control) (polyclonal serum or antibody)
O.D. (native α-lactalbumin): 0.06 O.D. | O.D. [1]: 0.05 O.D. | O.D. [2]: 0.056 O.D. | O.D. [3]: 0.06 O.D.
